Results published in US20080280824A1, “COMPOSITIONS AND METHODS FOR TREATMENT OF CANCER OR NEURODEGENERATIVE DISEASE WITH PEPTIDE BASED MICROTUBULE STABILIZERS OR INHIBITORS” (University of Washington, priority 2007, published 2008).
Entries after “also recorded” stand apart in the source; their conditions may differ.

What was measured:
Bovine brain tubulin [1] = molecular target: T1, Bovine brain tubulin (Bos taurus, UniProt P81947+Q6B856); assay: Microtubule assembly assay (DAPI fluorescence, Microtubule Stabilization/Destabilization Assay kit); type: biochemical; conditions: for effect on microtubule assembly, vs absence of αB crystallin: wt or mutant αB crystallin protein, tubulin alone normalized to 1.0; for effect on rate of microtubule assembly / effect on total microtubule assembly / amount of microtubules formed in 45 minutes: peptide or control molecule
T1 construct: Bovine brain tubulin was dissolved to 200 μM; purchased Cytoskeleton; Denver, Colo; host or cells: bovine brain
Method: Microtubule assembly assays. The effect of selected αB crystallin peptides on the in vitro assembly of tubulin into microtubules was evaluated using the Microtubule Stabilization/Destabilization Assay kit (Cytoskeleton; Denver, Colo.) as described previously. Bonne et al., J Biol Chem 260:2819-25, 1985. Bovine brain tubulin was dissolved to 200 μM in 80 mM PIPES, 2 mM MgCl2, 0.5 mM EGTA, 10 μM DAPI, 1 mM GTP pH 6.9. 8.5 μl of the tubulin was mixed with 40 μl of 80 mM PIPES, 2 mM MgCl2, 0.5 mM EGTA, 7.4 μM DAPI, 16% Glycerol, 1.1 mM GTP pH 6.9 and 4.3 μl of 2 mM peptide in 2.5% DMSO, 2 mM Paclitaxel (polymerization promoter) in 100% DMSO, 15 mM CaCl2 (polymerization inhibitor) in water, or 2.5% DMSO only. Microtubule assembly was monitored by measuring the fluorescence of DAPI, a molecule whose emission fluorescence at λ=460 is enhanced 8-fold when it is incorporated into assembled microtubules. Bonne et al., J Biol Chem 260:2819-25, 1985. Fluorescence of samples were continuously read on a Perkin Elmer Victor^3 V fluorescence plate reader (Excitation λ=355 nm, Emission λ=460 nm) at 37° C. for 45 minutes.
The effect of wt and three mutant αB crystallins, Δ41-58, αAβ8, and Δ155-165 on the in vitro assembly of tubulin into microtubules was evaluated using the Microtubule Stabilization/Destabilization Assay kit described above (Cytoskeleton; Denver, Colo.). Bovine brain tubulin was dissolved to 200 μM in 80 mM PIPES, 2 mM MgCl2, 0.5 mM EGTA, 10 μM DAPI, 1 mM GTP pH 6.9. 8.5 μl of the tubulin was mixed with 40 μl of 80 mM PIPES, 2 mM MgCl2, 0.5 mM EGTA, 7.4 μM DAPI, 16% Glycerol, 1.1 mM GTP pH 6.9 and 4.3 μl of 80 μM protein in 20 mM Tris-Cl, pH8.0 or Tris-Cl buffer only. Fluorescence of samples were continuously read on a Perkin Elmer Victor^3 V fluorescence plate reader (Excitation λ=355 nm, Emission λ=460 nm) at 37° C. for 45 minutes.

Bovine brain tubulin [2] = assay: Tubulin thermal aggregation assay (absorbance at 340 nm); type: biochemical; conditions: for effect on tubulin aggregation, vs absence of αB crystallin: wt or mutant αB crystallin protein; for effect on thermal aggregation of tubulin: synthetic peptide, 34 μM tubulin
Method: Tubulin aggregation assays. The effect of αB crystallin peptides and mutants on the thermal aggregation of tubulin was evaluated using ultra-violet spectroscopy. Bovine brain tubulin was dissolved to 200 μM in 80 mM PIPES, 2 mM MgCl2, 0.5 mM EGTA, pH 6.9. 4.25 μl of 0.08, 0.4, or 2 mM test peptide or protein was diluted into 40 μl of 80 mM PIPES, 2 mM MgCl2, 0.5 mM EGTA, pH 6.9. 8.5 μl of the 200 μM tubulin was added to each sample. Samples were heated at 52° C. and the absorbance at λ=340 nm was measured continuously for 60 minutes using a Pharmacia Biotech Ultrospec 3000. GTP and glycerol were not present in the samples because they induce the assembly of microtubules.

pre-formed microtubules = assay: Microtubule disassembly assay (DAPI fluorescence); type: biochemical, Bovine; conditions: for effect on microtubule disassembly (words), vs absence of αB crystallin: wt or mutant αB crystallin (6.8 μM and 34 μM), 34 μM microtubules; for effect on microtubule disassembly (words), vs absence of αB crystallin / effect on microtubule disassembly / inhibition of microtubule disassembly: 23° C., 20 minutes; for effect on microtubule disassembly / inhibition of microtubule disassembly: peptide 170 μM, 34 μM pre-formed microtubules
Method: Microtubule disassembly assays. The effect of αB crystallin peptides and mutants on the in vitro disassembly of microtubules into soluble tubulin was evaluated using the Microtubule Stabilization/Destabilization Assay kit described above (Cytoskeleton; Denver, Colo.) as described previously^36. 34 μM pre-formed microtubules were incubated with the αB crystallin peptides (170 μM) or wt and mutant αB crystallins (6.8 μM and 34 μM) at 23° C. for 20 minutes. Incubation of microtubules at 23° C. results in the spontaneous disassembly of microtubules. The decrease in DAPI fluorescence at λ=460 nm was measured continuously for 20 minutes by exciting the samples at λ=355 nm using a Perkin Elmer Victor^3 V fluorescence plate reader.

[3] = 34 μM tubulin, 37° C., vs tubulin alone
[4] = 34 μM tubulin, 37° C., 45 minutes, vs tubulin alone

T1 sequence (P81947 whole entry): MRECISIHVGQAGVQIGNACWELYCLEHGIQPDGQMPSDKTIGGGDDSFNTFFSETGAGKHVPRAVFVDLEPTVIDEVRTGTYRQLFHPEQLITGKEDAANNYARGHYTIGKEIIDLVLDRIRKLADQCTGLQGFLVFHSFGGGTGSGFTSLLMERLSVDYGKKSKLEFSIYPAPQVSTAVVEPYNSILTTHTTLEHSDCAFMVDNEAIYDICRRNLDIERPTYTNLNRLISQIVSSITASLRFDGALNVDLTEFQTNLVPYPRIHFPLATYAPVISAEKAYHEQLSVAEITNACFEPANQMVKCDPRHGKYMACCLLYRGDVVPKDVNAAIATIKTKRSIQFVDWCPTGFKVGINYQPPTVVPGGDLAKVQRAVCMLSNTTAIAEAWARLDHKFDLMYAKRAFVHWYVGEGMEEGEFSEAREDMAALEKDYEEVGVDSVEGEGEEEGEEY
T1 sequence (Q6B856 whole entry): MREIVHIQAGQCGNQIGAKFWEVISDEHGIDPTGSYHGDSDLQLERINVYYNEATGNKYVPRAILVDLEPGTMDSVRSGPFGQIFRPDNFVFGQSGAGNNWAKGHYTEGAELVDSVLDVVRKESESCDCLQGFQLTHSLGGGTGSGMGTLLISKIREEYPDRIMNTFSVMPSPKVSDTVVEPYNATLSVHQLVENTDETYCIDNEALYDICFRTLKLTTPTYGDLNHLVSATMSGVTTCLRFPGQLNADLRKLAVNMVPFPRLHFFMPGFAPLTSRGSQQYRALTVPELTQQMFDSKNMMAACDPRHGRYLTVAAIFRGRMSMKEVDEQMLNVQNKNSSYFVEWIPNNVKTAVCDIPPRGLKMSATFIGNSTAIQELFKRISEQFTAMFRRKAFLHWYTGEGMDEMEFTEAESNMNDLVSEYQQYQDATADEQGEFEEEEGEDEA

With “wt αB crystallin: wild-type full-length human αB crystallin, small heat shock protein and molecular chaperone, expressed and purified” the “effect on microtubule assembly (words)” value (Bovine brain tubulin [1]; high αB crystallin concentrations, tubulin:αB crystallin ratios <1:4) was “inhibited”, the “effect on microtubule assembly (words)” value (Bovine brain tubulin [1]; molar ratios of tubulin to αB crystallin <1:2) was “inhibited microtubule assembly” and the “effect on microtubule assembly (words)” value (Bovine brain tubulin [1]; molar ratios of tubulin to αB crystallin between 4:1 and 1:2) was “favored the assembly of additional microtubules; also recorded: promoted”. The “microtubule assembly” value (Bovine brain tubulin [1]; ratio of tubulin to αB crystallin 1:10) was “no microtubules were formed; also recorded: undetectable”, the “amount of microtubules formed less than tubulin alone” value (Bovine brain tubulin [1]; ratio of tubulin to αB crystallin <1:2, 34 μM tubulin) was 30-63% and the “effect on microtubule assembly (words)” value (Bovine brain tubulin [1]; ratio of tubulin to αB crystallin >4:1) was “minimal”. The “effect on microtubule assembly (words)” value (Bovine brain tubulin [1]; ratio of tubulin to αB crystallin >4:1, listed as αB crystallin) was “little or no effect”, the “microtubule assembly, normalized (absence of αB crystallin = 1.0)” value (shortened to “microtubule assembly, normalized”) (Bovine brain tubulin [1]; ratios <1.4, FIG. 5) was < 1 and the “microtubule assembly, normalized” value (Bovine brain tubulin [1]; ratios between 4:1 and 1.2, FIG. 5) was > 1.0. The “microtubule assembly, normalized” value (Bovine brain tubulin [1]; tubulin to αB crystallin ratios >4:1, FIG. 5) was 1.0, the “effect on microtubule assembly, vs absence of αB crystallin” value (Bovine brain tubulin [1]) was “increased” and the “increase of microtubule assembly” value (Bovine brain tubulin [1]; αB crystallin protein (4.3 μl of 80 μM), 34 μM tubulin, 37° C., 45 minutes) was ~41%. For the same molecule, the “decrease of thermal aggregation of tubulin (protection)” value (Bovine brain tubulin [2]; full-length αB crystallin protein, 52° C., 60 minutes) was 65%, the “effect on tubulin aggregation, vs absence of αB crystallin” value (Bovine brain tubulin [2]; 52° C., 60 minutes) was “decreased” and the “effect on microtubule disassembly (words), vs absence of αB crystallin” value (“effect … (words), vs absence of αB crystallin” below) (pre-formed microtubules) was “unchanged”. For the same molecule, the “effect … (words), vs absence of αB crystallin” value (pre-formed microtubules; listed as Wt αB crystallin) was “no effect”.

`CC(=O)O[C@H]1C(=O)[C@@]2(C)[C@H]([C@H](OC(=O)c3ccccc3)[C@]3(O)C[C@H](OC(=O)[C@H](O)[C@@H](NC(=O)c4ccccc4)c4ccccc4)C(C)=C1C3(C)C)[C@]1(OC(C)=O)CO[C@@H]1C[C@@H]2O` [Paclitaxel, reference compound] was tested, and the “effect on rate of microtubule assembly” value (Bovine brain tubulin [1]; [3]) was “accelerated microtubule assembly”.

With LTITSSLSSDGV the “effect on total microtubule assembly / amount of microtubules formed in 45 minutes” value (Bovine brain tubulin [1]; [4]) was “increased”, the “effect on total microtubule assembly / amount of microtubules formed in 45 minutes” value (Bovine brain tubulin [1]; 34 μM tubulin, 37° C., 45 minutes, vs tubulin alone, listed as 131LTITSSLSSDGV142) was “promote microtubule assembly” and the “effect on rate of microtubule assembly” value (Bovine brain tubulin [1]; [3]) was “increased”. For the same molecule, the “effect on thermal aggregation of tubulin” value (Bovine brain tubulin [2]; 52° C., 60 minutes) was “decreased”, the “effect on thermal aggregation of tubulin” value (Bovine brain tubulin [2]; 52° C., 60 minutes, listed as 131LTITSSLSSDGV142) was “protected” and the “effect on microtubule disassembly” value (pre-formed microtubules) was “no effect”. The “effect on microtubule disassembly” value (pre-formed microtubules; listed as 131LTITSSLSSDGV142) was “inhibit microtubule disassembly”.

With `[Ca+2].[Cl-].[Cl-]` [CaCl2, reference compound] the “effect on total microtubule assembly / amount of microtubules formed in 45 minutes” value (Bovine brain tubulin [1]; [4]) was “inhibited microtubule assembly”.

For FISREFHR, the “effect on total microtubule assembly / amount of microtubules formed in 45 minutes” value (Bovine brain tubulin [1]; [4]) was “decreased the amount of microtubules formed; also recorded: inhibited”, the “effect on total microtubule assembly / amount of microtubules formed in 45 minutes” value (Bovine brain tubulin [1]; 34 μM tubulin, 37° C., 45 minutes, vs tubulin alone, listed as 113FISREFHR120) was “inhibited microtubule assembly” and the “effect on rate of microtubule assembly” value (Bovine brain tubulin [1]; [3]) was “slowed microtubule assembly”. For the same molecule, the “decrease of microtubule assembly” value (Bovine brain tubulin [1]; synthetic peptide (4.3 μl of 2 mM), 34 μM tubulin, 37° C., 45 minutes, vs tubulin alone) was “approximately 45%”, the “effect on thermal aggregation of tubulin” value (Bovine brain tubulin [2]; 52° C., 60 minutes) was “decreased” and the “effect on thermal aggregation of tubulin” value (Bovine brain tubulin [2]; 52° C., 60 minutes, listed as 113FISREFHR120) was “protected”. The “effect on microtubule disassembly” value (pre-formed microtubules) was “decreased”, the “inhibition of microtubule disassembly” value (pre-formed microtubules) was ~24% and the “effect on microtubule disassembly” value (pre-formed microtubules; listed as 113FISREFHR120) was “inhibited”.

DRFSVNLDVKHFS was tested, and the “effect on total microtubule assembly / amount of microtubules formed in 45 minutes” value (Bovine brain tubulin [1]; [4]) was “no effect; also recorded: without an effect”, the “effect on total microtubule assembly / amount of microtubules formed in 45 minutes” value (Bovine brain tubulin [1]; 34 μM tubulin, 37° C., 45 minutes, vs tubulin alone, listed as 73DRFSVNLDVKHFS85) was “no effect; also recorded: little or no effect” and the “effect on rate of microtubule assembly” value (Bovine brain tubulin [1]; [3]) was “accelerated microtubule assembly; also recorded: increased”. The “effect on thermal aggregation of tubulin” value (Bovine brain tubulin [2]; 52° C., 60 minutes) was “no effect”, the “effect on microtubule disassembly” value (pre-formed microtubules) was “no effect” and the “effect on microtubule disassembly” value (pre-formed microtubules; listed as 73DRFSVNLDVKHFS85) was “little or no effect”.

In the case of STSLSPFYLRPPSFLRAP, the “delay of initiation of microtubule assembly relative to tubulin alone” value (Bovine brain tubulin [1]; 34 μM tubulin, 37° C.) is reported as “approximately 5 minutes”, the “effect on total microtubule assembly / amount of microtubules formed in 45 minutes” value (Bovine brain tubulin [1]; [4]) is reported as “no effect; also recorded: no change” and the “effect on total microtubule assembly / amount of microtubules formed in 45 minutes” value (Bovine brain tubulin [1]; 34 μM tubulin, 37° C., 45 minutes, vs tubulin alone, listed as 41STSLSPFYLRPPSFLRAP58) is reported as “no effect; also recorded: little or no effect”. The “effect on rate of microtubule assembly” value (Bovine brain tubulin [1]; [3]) was “slowed the rate of microtubule assembly”, the “effect on thermal aggregation of tubulin” value (Bovine brain tubulin [2]; 52° C., 60 minutes) was “small protective effect” and the “effect on microtubule disassembly” value (pre-formed microtubules) was “no effect”. For the same molecule, the “effect on microtubule disassembly” value (pre-formed microtubules; listed as 41STSLSPFYLRPPSFLRAP58) was “little or no effect”.

In the case of “ERTIPITRE [synthetic peptide of human αB crystallin C-terminal extension, residues 156-164]”, the “effect on total microtubule assembly / amount of microtubules formed in 45 minutes” value (Bovine brain tubulin [1]; [4]) is reported as “increased”, the “effect on total microtubule assembly / amount of microtubules formed in 45 minutes” value (Bovine brain tubulin [1]; 34 μM tubulin, 37° C., 45 minutes, vs tubulin alone, listed as 155ERTIPITRE165) is reported as “promote microtubule assembly” and the “effect on total microtubule assembly / amount of microtubules formed in 45 minutes” value (Bovine brain tubulin [1]; 34 μM tubulin, 37° C., 45 minutes, vs tubulin alone, listed as 156ERTIPITRE164) is reported as “promote microtubule assembly”. The “effect on rate of microtubule assembly” value (Bovine brain tubulin [1]; [3]) was “increased”, the “effect on thermal aggregation of tubulin” value (Bovine brain tubulin [2]; 52° C., 60 minutes) was “decreased” and the “effect on microtubule disassembly” value (pre-formed microtubules) was “decreased”. For the same molecule, the “inhibition of microtubule disassembly” value (pre-formed microtubules) was ~36% and the “effect on microtubule disassembly” value (pre-formed microtubules; listed as 156ERTIPITRE164) was “inhibit microtubule disassembly”.

B1: R120G: single point mutant of human αB crystallin, Arg-120 replaced with glycine (protein)
chain: MDIAIHHPWIRRPFFPFHSPSRLFDQFFGEHLLESDLFPTSTSLSPFYLRPPSFLRAPSWFDTGLSEMRLEKDRFSVNLDVKHFSPEELKVKVLGDVIEVHGKHEERQDEHGFISREFHGKYRIPADVDPLTITSSLSSDGVLTVNGPRKQVSGPERTIPITREEKPAVTAAPKK
With B1 the “microtubule assembly relative to wt αB crystallin” value (Bovine brain tubulin [1]; mutant αB crystallin, FIG. 4) was “lower”, the “effect on microtubule assembly, vs absence of αB crystallin” value (Bovine brain tubulin [1]) was “unchanged” and the “tubulin aggregation relative to wt αB crystallin” value (Bovine brain tubulin [2]; mutant αB crystallin, FIG. 4) was “similar”. For the same molecule, the “effect on tubulin aggregation, vs absence of αB crystallin” value (Bovine brain tubulin [2]; 52° C., 60 minutes) was “decreased”, the “microtubule disassembly relative to wt αB crystallin” value (pre-formed microtubules; mutant αB crystallin, FIG. 4) was “similar” and the “effect … (words), vs absence of αB crystallin” value (pre-formed microtubules) was “unchanged”.
